Where no end group is shown, it is not given here.
Target: SARS-CoV-2 M^pro (Severe acute respiratory syndrome coronavirus 2, UniProt P0DTD1)
Experiment: biochemical
Type: biochemical
Conditions: for M^pro inhibition (%): 100 µM

| Compound | M^pro inhibition (%) | also measured |
| --- | --- | --- |
| CC[C@H](C)[C@H](NC(=O)[C@H](CCC(=O)O)NC(=O)[C@H](C)NC(=O)[C@H](CCSC)NC(=O)[C@H](CC(=O)O)NC(=O)[C@@H]1CCCN1C(=O)[C@H](CCCCN)NC(=O)[C@H](CC(=O)O)NC(=O)[C@H](CO)NC(C)=O)C(=O)N[C@@H](CCC(=O)O)C(=O)N[C@@H](CCCCN)C(=O)N[C@@H](Cc1ccccc1)C(=O)N[C@@H](CC(=O)O)C(=O)N[C@@H](CCCCN)C(=O)N[C@@H](CO)C(=O)N[C@@H](CCCCN)C(=O)N[C@@H](CC(C)C)C(=O)N[C@@H](CCCCN)C(=O)N[C@@H](CCCCN)C(=O)N[C@H](C(=O)N[C@@H](CCC(=O)O)C(=O)N[C@H](C(=O)N[C@@H](CCC(N)=O)C(=O)N[C@@H](CCC(=O)O)C(=O)N[C@@H](CCCCN)C(=O)N[C@@H](CC(N)=O)C(=O)N1CCC[C@H]1C(=O)N[C@@H](CC(C)C)C(=O)N1CCC[C@H]1C(=O)N[C@@H](CO)C(=O)N[C@@H](CCCCN)C(=O)N[C@@H](CCC(=O)O)C(=O)N[C@H](C(=O)N[C@H](C(=O)N[C@@H](CCC(=O)O)C(=O)N[C@@H](CCC(N)=O)C(=O)N[C@@H](CCC(=O)O)C(=O)N[C@@H](CCCCN)C(=O)N[C@@H](CCC(N)=O)C(=O)N[C@@H](C)C(=O)NCC(=O)N[C@@H](CCC(=O)O)C(=O)N[C@@H](CO)C(=O)O)[C@@H](C)CC)[C@@H](C)O)[C@@H](C)O)[C@@H](C)O [Ac-Tβ4, Acetyl-thymosin β4] |  | inhibition at 100 µM (read-out: M^pro inhibition (%)): 7.09%; IC50 against SARS-CoV-2 M^pro (six inhibitor concentrations 100 μM–97.65 nM): no inhibition |
| Ac-SDKP |  | M^pro inhibition, in vitro screening of Ac-Tβ1-17 fragments (iterative N- and C-terminal fragments of Ac-Tβ1-17): less than 50% |
| Ac-Tβ4_1-11: peptide metabolite of Ac-Tβ4, amino acids 1-11 (Ac-SDKPDMAEIEK; UniProt P62328 2-12, looked up, fragment) | 1.25 |  |
| Ac-Tβ4_1-15: peptide metabolite of Ac-Tβ4, amino acids 1-15 (Ac-SDKPDMAEIEKFDKS) | 34.4 |  |
| Ac-Tβ4_17-43: peptide metabolite of Ac-Tβ4, amino acids 17-43 (LKKTETQEKNPLPSKETIEQEKQAGES; Thymosin beta-4; UniProt P62328 18-44, looked up, fragment) | 25.16 |  |
| Ac-Tβ4_31-43: peptide metabolite of Ac-Tβ4, amino acids 31-43 (KETIEQEKQAGES; Thymosin beta-4; UniProt P62328 32-44, looked up, fragment) | 1.88 |  |
